Results published in patent publication US20230095569A1 (ANTENGENE BIOLOGICS, published 2023).

Experiments:
[1] = molecular target: T1, human Claudin18.2 (CLDN18.2) (human, UniProt P56856 1-261); assay: FACS on CHOK1-18.2 cells;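 as to FACS MFI: antibody binding to the cells detected with a fluorescently labelled secondary antibody and read out as median fluorescence intensity by flow cytometry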
T1 construct: the cell line is named under assay; also called human Claudine18.2; hClaudin18.2

[2] = molecular target: T1, human Claudin18.2 (CLDN18.2); assay: cell-based or functional assay
[3] = molecular target: T1, human Claudin18.2 (CLDN18.2); assay: FACS on GAXC031 cells, antibody at 50 µg/ml
[4] = molecular target: T1, human Claudin18.2 (CLDN18.2); assay: FACS on CHOK1-18.2 cells, antibody at 50 µg/ml
[5] = molecular target: T1, human Claudin18.2 (CLDN18.2); assay: cell-based or functional assay; remark: listed apart in the source
[6] = molecular target: T1, human Claudin18.2 (CLDN18.2); assay: cell-based or functional assay; remark: listed apart in the source
[7] = molecular target: T1, human Claudin18.2 (CLDN18.2); assay: FACS on CHOK1-18.2 cells; remark: listed apart in the source;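 as to FACS MFI: antibody binding to the cells detected with a fluorescently labelled secondary antibody and read out as median fluorescence intensity by flow cytometry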
Experimental: (§1) The specificity and cross-reactivity of these subclones were confirmed with FACs analysis. […] Fluorescent dye-conjugated secondary antibody was used to detect the binding of the primary antibody with the cells. Median fluorescence intensity (MFI) was measured by FACs analysis.

[8] = molecular target: T2, human Claudin18.1 (CLDN18.1) (human, UniProt P56856 1-261); assay: FACS on CHOK1-18.1 cells;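 as to FACS MFI: test antibody binding to the cells detected by flow cytometry using a fluorescent dye-labelled secondary antibody, read out as median fluorescence intensity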;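 as to result: antibody binding to cells detected with a fluorescently labelled secondary antibody, read out as median fluorescence intensity (MFI) by flow cytometry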
T2 construct: whole, on cells; also called human Claudine18.1
Experimental: as §1

[9] = molecular target: T2, human Claudin18.1 (CLDN18.1); assay: FACS on CHOK1-18.1 cells; remark: listed apart in the source;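 as to FACS MFI: test antibody binding to the cells detected by flow cytometry using a fluorescent dye-labelled secondary antibody, read out as median fluorescence intensity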;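 as to result: antibody binding to cells detected with a fluorescently labelled secondary antibody, read out as median fluorescence intensity (MFI) by flow cytometry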
Experimental: as §1

EC50 [1] [nM]	ADCC EC50 [2] [nM]	MAX MFI [3]	MAX MFI [4]	CDC EC50 [5] [nM]	Max inhibition % [6] [%]	FACS MFI [7]	binding result [8]	FACS MFI [9]	Binder	Max tumor cell killing (% of control), ADCC [2]	Max CDC induced tumor cell killing (% of control) [5]	IC50 of indirect ADC cytotoxicity [6] [nM]
3.6	2.22	5830	71900	13.6	92.5	–	–	–	chAb08 (antibody, V domains shown) VH: QVQLQQPGAELVKPGASVKLSCKASGYTFTSYLLHWVKQRPGQGLEWIGMIHPNGGSTNYNEKFKTKATLTVDKSSSTAYMQLSSLTSEDSAVYYCAPVYFGNSFAYWGQGTLVTVSA VL: DIVMTQSPSSLTVTAGEKVTMSCKSSQSLLNSGNQKNYLTWYQQKPGQPPKLLIYWASTRESGVPDRFTGSGSGTDFTLTISSVQAEDLAVYYCQNDYYYPFTFGSGTKLEKK	69.3 % of control	68.4 % of control	0.45
–	–	–	–	–	–	12600	no binding	82.3	Ab25 (antibody, V domains shown, mouse monoclonal (hybridoma)) VH: EAQLQQSGPELVKPGASVKIFCKASGYTFTDYYINWVKQSHGKSLEWIGDINPNNGGTTYNQKFKGKATLTVDKSSSTASMELRRLTSEDSSVYYCARRDAMDYWGQGTSVTVSS VL: DIVMTQSQKFMSTTVGDRVSITCTASQNVGPAVAWYQQKPGQSPKLLIYSASRRFTGVPDRFTGSGSGTVFTLTINNVQSEDLADYFCQQYISYPLTFGAGTKLELK	–	–	–
2.14	–	3860	75300	–	–	–	–	–	chAb04 (antibody, V domains shown) VH: EVQLQQSGPELVKPGASVKMSCMASGYTFTDYNIHWVKRSHGSRLEWIGYISPISGGAGYNQKFMDKATLTVDKSSNTAYMELRSLTSEDSAVYYCTRGDYWGQGTTLTVSS VL: DIVMTQSPSSLAVTVGEKVTMSCKSSQSLLNSGNQKNYLTWYQQKPGQPPKLLIYWASTRKSGVPDRFTGSGSGTDFTLTISSVQAEDLGIYYCLNDYGFPLTFGAGSKLELK	–	–	–
3.63	3.7	6420	85600	19.4	93.5	–	–	–	chAb11 (antibody, V domains shown) VH: EVMLVESGGDLVKPGGSLKLSCAASGFTFSRYTMSWVRQTPEKRLEWVATVSVGSGNTYYLDSVKGRFTISRDNAKNTLFLQMNSLRSEDTALYYCTRLGQTQRNAVDYWGQGTSVTVSS VL: DIVMTQSPSFLSVSAGEKVTMSCKSSQSLFNGGNQKNYLAWYQQKPGQPPKLLIYGASTRDSGVPDRFTGSGSGTDFTLTISNVQAEDLAIYFCQNDHSFPLTFGAGTKLELK	54.7 % of control	71.2 % of control	0.87
–	–	–	–	–	–	7340	no binding	80.8	Ab19 (antibody, V domains shown, mouse monoclonal (hybridoma)) VH: EVMLVESGGDLVKPGGSLKLSCAASGFSFSRYTMSWVRQTPEKRLEWVATVSVGSGNTYYLDSVKGRFTISRDNAKNTLFLQMSSLRSEDTALYYCARMGQTQRNAVDYWGQGTSVTVSS VL: DIVMTQSPSSLSVSAGEKVTMSCKSSQSLFNSGNQKNYLAWYQQKPGQPPKLLIYGASTRESGVPDRFTGSGSGTDFTLTISNVQAEDLAVYLCQNDHSFPLTFGAGTKLEL	–	–	–
–	–	–	–	–	–	10100	no binding	80.8	Ab24 (antibody, V domains shown, mouse monoclonal (hybridoma)) VH: EVKLVESGGGLVKPGGSLKLSCAGSGFTFSSYTMSWVRQTPEKRLEWVATITIGVNIYYLDSVKGRFTISRDNAKNTLYLQMNSLRSEDTALYYCTRLGQTQRNAMDYWGQGTSVTVSS VL: DIVMTQSPTSLSVSAGEKVTMTCKSSQSLFNSGNQKNYLAWYQEKPGQPPKLLIYGASTRESGVPDRFTGSGSGTDFTLTISSVQAEDLAVYYCQNVHFYPFTFGAGTKLEL	–	–	–
–	–	–	–	–	–	9910	no binding	79.4	Ab18 (antibody, V domains shown, mouse monoclonal (hybridoma)) VH: QVQLKESGPGLVAPSQSLSITCTVSGFSLTTYGINWVRQPPGKGLEWLGVIWGDGSTNYHSALISRLSISKDNSKSQVFLKLNSLQTDDTATYYCVKSSYYGNAMDYWGQGTSVTVSS VL: DIVMTQSPSSLTVTAGETVTMSCKSSQSLLNSGNQKNYLTWYQQKPGQPPKLLIYWASTRESGVPDRFTGSGSGTDFTLTISSVQAEDLAVYYCQNVYSYPFTFGSGTKLEI	–	–	–
